B1: Twister Ribozyme (parent)
chain: AACACUGCCAAUGCCGGUCCCAAGCCCGGAUAAAAGUGGAGGGGGCGG

Variants of: B1
Experiment: self-cleavage, relative activity (ratio to wild type); higher = more cleavage; co-transcriptional

Question: For AACACUGCGAAUGCCGGUCCCAAGCCCGGAUAAAAAUGGAGGGGGCGG, which self-cleavage is on record?
Answer: 0.204

Question: Which self-cleavage does the source give for AACACUGCGAAUGCCGGUCCCAAGCCCGGAUAAGAGUGGAGGGGGCGG here?
Answer: 0.238

Question: With AACACUGCGAAUGCCGGUCCCAAGCCCGGAUAACAGUGGAGGGGGCGG as the variant, how does the self-cleavage read?
Answer: 0.134

Question: For AACACUGCGAAUGCCGGUUCCAAGCCCGGAUAAAAGUGGAGGGGGCGG, which self-cleavage is on record?
Answer: 0.144

Question: For AACACUGCGAAUGCCGGUACCAAGCCCGGAUAAAAGUGGAGGGGGCGG, which self-cleavage is on record?
Answer: 0.0927

Question: Which self-cleavage does the source give for AACACUGCGAAUGCCGGUGCCAAGCCCGGAUAAAAGUGGAGGGGGCGG here?
Answer: 0.073

Question: Which self-cleavage does the source give for AACACUGCGAAUGCCGGUCCCAAGCCCGGAGAAAAGUGGAGGGGGCGG here?
Answer: 0.781

Question: With AACACUGCGAAUGCCGGUCCCAAGCCCGGACAAAAGUGGAGGGGGCGG as the variant, how does the self-cleavage read?
Answer: 0.722

Question: With AACACUGCUAAUGCCGGUCCCAAGCCCGGUUAAAAGUGGAGGGGGCGG as the variant, how does the self-cleavage read?
Answer: 0.579

Question: With AACACUGCUCAUGCCGGUCCCAAGCCCGGAUAAAAGUGGAGGGGGCGG as the variant, how does the self-cleavage read?
Answer: 0.948

Question: Which self-cleavage does the source give for AACACUGCUUAUGCCGGUCCCAAGCCCGGAUAAAAGUGGAGGGGGCGG here?
Answer: 0.399

Question: For AACACUGCGAAUGCCGGUCCCAAGCCCGGAUAAAAGUGGAGGUGGCGG, which self-cleavage is on record?
Answer: 0.134

Question: For AACACUGCGAAUGCGGGUCCCAAGCCCGGAUAAAAGUGGAGGGGGCGG, which self-cleavage is on record?
Answer: 0.0512

Question: With AACACUGCGAAUGCAGGUCCCAAGCCCGGAUAAAAGUGGAGGGGGCGG as the variant, how does the self-cleavage read?
Answer: 0.278

Question: Which self-cleavage does the source give for AACACUGCGAAUGCCGGUCCCAAGCCCGGAUAAAAGUGGAGGGUGCGG here?
Answer: 0.427

Question: For AACACUGCGAAUGCCGGUCCCAAGCCCGGAUAAAAGUGGAGGGAGCGG, which self-cleavage is on record?
Answer: 0.731

Question: Which self-cleavage does the source give for AACACUGCGAAUGCCGGUCCCAAGCCCGCAUAAAAGUGGAGGGGGCGG here?
Answer: 0.396

Question: Which self-cleavage does the source give for AACACUGCGAAUGCCGGUCCCAAGCCCGUAUAAAAGUGGAGGGGGCGG here?
Answer: 0.447

Question: For AACACUGCGAAUGCCGGUCCCAAGCCCGAAUAAAAGUGGAGGGGGCGG, which self-cleavage is on record?
Answer: 0.596

Question: With AACACUGCGAAUGCCGGUCCCAAGCCCGGAUAAAAGUGGUGGGGGCGG as the variant, how does the self-cleavage read?
Answer: 0.151

Question: With AACACUGCGAAUGCCGGUCCCAAGCCCGGAUAAAAGUGGCGGGGGCGG as the variant, how does the self-cleavage read?
Answer: 0.102

Question: With AACACUGCGAAUGCCGGUCCCAAGCCCGGAUAAAAGUGGGGGGGGCGG as the variant, how does the self-cleavage read?
Answer: 0.109

Question: With AACACUGCUAAUGCCGGUCCCAUGCCCGGAUAAAAGUGGAGGGGGCGG as the variant, how does the self-cleavage read?
Answer: 0.0746

Question: For AACACUGCUAAUGCCGGUCCCAGGCCCGGAUAAAAGUGGAGGGGGCGG, which self-cleavage is on record?
Answer: 0.0717

Question: With AACACUGCGAAAGCCGGUCCCAAGCCCGGAUAAAAGUGGAGGGGGCGG as the variant, how does the self-cleavage read?
Answer: 0.968

Question: For AACACUGCGAAUGCCGGUCCCAAGCCCGGAUAAAAGUGUAGGGGGCGG, which self-cleavage is on record?
Answer: 0.147

Question: Which self-cleavage does the source give for AACACUGCGAAUGCCGGUCCCAAGCCCGGAUAAAAGUGAAGGGGGCGG here?
Answer: 0.137

Question: For AACACUGCGAAUGCCGGUCCCAAGCCCGGAUAAAAGUGGAGUGGGCGG, which self-cleavage is on record?
Answer: 0.119

Question: With AACACUGCGAAUGCCGAUCCCAAGCCCGGAUAAAAGUGGAGGGGGCGG as the variant, how does the self-cleavage read?
Answer: 0.103

Question: For AACACUGCGAAUGCCGGUCCCAAACCCGGAUAAAAGUGGAGGGGGCGG, which self-cleavage is on record?
Answer: 0.0902

Question: With AACACUGCGAAUGCCGGUCCCAAGCCCAGAUAAAAGUGGAGGGGGCGG as the variant, how does the self-cleavage read?
Answer: 0.512

Question: Which self-cleavage does the source give for AACACUGCGAAUGCCGGUCCCAAGCCCCGAUAAAAGUGGAGGGGGCGG here?
Answer: 0.495

Question: Which self-cleavage does the source give for AACACUGCGAAUGCCGGUCCCAAGCCCUGAUAAAAGUGGAGGGGGCGG here?
Answer: 0.428

Question: With AACACUGCUAAUGCCGGUCCCAAGCCCGGAUUAAAGUGGAGGGGGCGG as the variant, how does the self-cleavage read?
Answer: 0.585

Question: Which self-cleavage does the source give for AACACUGCUAAUGCCGGUCCCAAGCCCGGAUCAAAGUGGAGGGGGCGG here?
Answer: 0.64

Question: With AACACUGCGAAUGCCGGUCCCAAGCCCGGAUAAAAGUGGAGGGGACGG as the variant, how does the self-cleavage read?
Answer: 0.444

Question: With AACACUGCGAAUGCCGGUCCCAAGCCCGGAUAAAAGCGGAGGGGGCGG as the variant, how does the self-cleavage read?
Answer: 0.156

Question: Which self-cleavage does the source give for AACACUGCGAAUGCCGGUCCCAAGCCCGGAUAAAAGAGGAGGGGGCGG here?
Answer: 0.208

Question: Which self-cleavage does the source give for AACACUGCUAAUGCCGGUCCCUAGCCCGGAUAAAAGUGGAGGGGGCGG here?
Answer: 0.313

Question: Which self-cleavage does the source give for AACACUGCUAAUGCCGGUCCCGAGCCCGGAUAAAAGUGGAGGGGGCGG here?
Answer: 0.0671

Question: For AACACUGCUAAUGCCGGUCCCCAGCCCGGAUAAAAGUGGAGGGGGCGG, which self-cleavage is on record?
Answer: 0.779

Question: For AACACUGCGAAUGCCGGUCCCAAGCCCGGAUAAAAGUGGAGGGGGUGG, which self-cleavage is on record?
Answer: 0.609

Question: For AACACUGCGAAUGCCGGUCCCAAGCCCGGAUAAAAGUGGAGGGGGAGG, which self-cleavage is on record?
Answer: 0.376

Question: For AACACUGCUAUUGCCGGUCCCAAGCCCGGAUAAAAGUGGAGGGGGCGG, which self-cleavage is on record?
Answer: 0.84

Question: With AACACUGCUAGUGCCGGUCCCAAGCCCGGAUAAAAGUGGAGGGGGCGG as the variant, how does the self-cleavage read?
Answer: 0.597

Question: For AACACUGCGAAUGCCGGUCCCAAGCCCGGAUAAAAGUUGAGGGGGCGG, which self-cleavage is on record?
Answer: 0.387

Question: Which self-cleavage does the source give for AACACUGCGAAUGCCGGUCACAAGCCCGGAUAAAAGUGGAGGGGGCGG here?
Answer: 0.0864

Question: For AACACUGCGAAUGCCGGUCGCAAGCCCGGAUAAAAGUGGAGGGGGCGG, which self-cleavage is on record?
Answer: 0.0438

Question: Which self-cleavage does the source give for AACACUGCGAAUGGCGGUCCCAAGCCCGGAUAAAAGUGGAGGGGGCGG here?
Answer: 0.0866

Question: Which self-cleavage does the source give for AACACUGCGAAUGCCGGUCCCAAGCCCGGAUAAAAGUGGAAGGGGCGG here?
Answer: 0.168

Question: Which self-cleavage does the source give for AACACUGCGAAUGCCGGUCCAAAGCCCGGAUAAAAGUGGAGGGGGCGG here?
Answer: 0.0451

Question: Which self-cleavage does the source give for AACACUGCGAAUGCCGGUCCCAAGCCCGGAUAAACGUGGAGGGGGCGG here?
Answer: 0.556

Question: With AACACUGCGAAUGCCGGUCCCAAGCCCGGAUAAAAGUGGAGGGGGCGU as the variant, how does the self-cleavage read?
Answer: 0.377

Question: With AACACUGCGAAUGCCUGUCCCAAGCCCGGAUAAAAGUGGAGGGGGCGG as the variant, how does the self-cleavage read?
Answer: 0.346
